Columns and labels:
[1] = test system: immobilized biotinylated peptide, N-terminal amino acid L (X-SDGMFTAGSLIGK(biotin)); test: Phage ELISA, binding to immobilized peptide, N-terminal L
Description: (§1) Given the discovery that the specificity pocket library was functionally robust, selections against synthetic peptide ligands were carried out using this library. The specificity pocket library was selected against 20 biotinylated peptides, each with a different N-terminal residue atop a common leader sequence (X-SDGMFTAGSLIGK(biotin)) (SEQ ID NO: 4). The peptides were immobilized individually to the bottom wells of a microtiter plate. […] Consequently, ClpS mutant variants that prefer other residues in addition to the ligand ‘bait’ would bind those competing peptides in solution and simply be washed away. Only selective variants that bound to the immobilized target(s) were amplified during each subsequent round of selection.
(§2) To evaluate the specificity and selectivity of individual clones, both wild-type ClpS and the selected variants' binding to each of the biotinylated peptides independently were tested. The same approach was also used to monitor the progress of the selections and to prioritize particular pools of phage for further investigation.
(§3) Promising single clones were picked from the selection pools and their specificity was evaluated using the same panel of biotinylated peptides and various amounts of phage supernatant. […] Accordingly, Variant 1 represents a selective N-terminal amino acid capture probe for tryptophan useful for the sequencing methods described herein. Variant 1 also represents a useful scaffold for performing further generation and selection of variants with desirable properties for use as additional N-terminal amino acid capture probes.
(§4) The selection and ELISA protocols are very similar. Briefly, each well of a 96-well Maxisorp plate was coated overnight at 4° C. with 100 μl of 10 μg/ml neutravidin in PBS, or 1:500 dilution of anti-FLAG antibody. […]
(§5) For the ELISA readouts, 100 μl of pH adjusted phage supernatant or polyethylene glycol (PEG) precipitated concentrated phage was added to appropriate wells and allowed to bind for 1 hour at 4° C. […] The reaction was stopped by addition of 90 μl of 1M H3PO4 and the absorbance at A450 nm was read.

[2] = test system: immobilized biotinylated peptide, N-terminal amino acid V (X-SDGMFTAGSLIGK(biotin)); test: Phage ELISA, binding to immobilized peptide, N-terminal V
Description: as §1, §2, §3, §4, §5

[3] = test system: immobilized biotinylated peptide, N-terminal amino acid T (X-SDGMFTAGSLIGK(biotin)); test: Phage ELISA, binding to immobilized peptide, N-terminal T
Description: as §1, §2, §3, §4, §5

[4] = test system: immobilized biotinylated peptide, N-terminal amino acid Q (X-SDGMFTAGSLIGK(biotin)); test: Phage ELISA, binding to immobilized peptide, N-terminal Q
Description: as §1, §2, §3, §4, §5

[5] = test system: leucine, phenylalanine, tyrosine and tryptophan N-termini; details: Schuenemann et al. 2009; Tasaki et al. 2009; cited from earlier work
Leu-peptides = test: Phage binding to immobilized peptides or control peptides, ELISA (FIG. 6B); details: negative controls BSA, SA, NA
Text: Selected peptide ligands during were synthesized with C-terminal biotin-lysine residues. The biotinylated peptides were immobilized on neutravidin-coated wells of a microtiter plate by passive adsorption, alongside additional control proteins.
The ClpS domains were N-terminally FLAG-tagged as shown in FIG. 6A so that display of the recombinant phage coat protein would be detectable (using commercial anti-FLAG antibody), even if the domains were not able to bind ligand. […] The expressed proteins also contained an ST2 secretion signal that is cleaved off and a C-terminal phage coat protein p3 (that is, fused to the C-terminus/residue 106 of E. coli ClpS) as shown in FIG. 6C.
The selection and ELISA protocols are very similar. Briefly, each well of a 96-well Maxisorp plate was coated overnight at 4° C. with 100 μl of 10 μg/ml neutravidin in PBS, or 1:500 dilution of anti-FLAG antibody. Plates were washed three times with PBS+0.50% TWEEN-20 (PT) and blocked for 1 hour at room temperature with 200 ul of PBS+0.5% BSA (PB). Plates were washed again three times with PT. […]
as §5

[6] = test system: immobilized biotinylated peptide, N-terminal amino acid E (X-SDGMFTAGSLIGK(biotin)); test: Phage ELISA, binding to immobilized peptide, N-terminal E
Description: as §1, §2, §3, §4, §5

[7] = test system: immobilized biotinylated peptide, N-terminal amino acid P (X-SDGMFTAGSLIGK(biotin)); test: Phage ELISA, binding to immobilized peptide, N-terminal P
Description: as §1, §2, §3, §4, §5

Leu-peptide = details: reported value, wildtype ClpS:Leu-peptide interaction; read-out: dissociation constant (Kd); cited from earlier work
[8] = test system: panel of 20 biotinylated peptides, each with a different N-terminal residue (X-SDGMFTAGSLIGK(biotin)); test: Phage ELISA specificity profile over the panel of biotinylated peptides; type: binding; details: phage displayed; result in words
Description: as §1
To evaluate the specificity and selectivity of individual clones, both wild-type ClpS and the selected variants' binding to each of the biotinylated peptides independently were tested. […]
Promising single clones were picked from the selection pools and their specificity was evaluated using the same panel of biotinylated peptides and various amounts of phage supernatant. […]
as §5

[9] = test system: immobilized biotinylated peptide, N-terminal amino acid W (X-SDGMFTAGSLIGK(biotin)); test: Phage ELISA, binding to immobilized peptide, N-terminal W
Description: as §1, §2, §3, §4, §5

[10] = test system: immobilized biotinylated peptide, N-terminal amino acid H (X-SDGMFTAGSLIGK(biotin)); test: Phage ELISA, binding to immobilized peptide, N-terminal H
Description: as §1, §2, §3, §4, §5

[11] = test system: immobilized biotinylated peptide, N-terminal amino acid N (X-SDGMFTAGSLIGK(biotin)); test: Phage ELISA, binding to immobilized peptide, N-terminal N
Description: as §1, §2, §3, §4, §5

[12] = test system: immobilized biotinylated peptide, N-terminal amino acid M (X-SDGMFTAGSLIGK(biotin)); test: Phage ELISA, binding to immobilized peptide, N-terminal M
Description: as §1, §2, §3, §4, §5

[13] = test system: immobilized biotinylated peptide, N-terminal amino acid C (X-SDGMFTAGSLIGK(biotin)); test: Phage ELISA, binding to immobilized peptide, N-terminal C
Description: as §1, §2, §3, §4, §5

[14] = test system: immobilized biotinylated peptide, N-terminal amino acid F (X-SDGMFTAGSLIGK(biotin)); test: Phage ELISA, binding to immobilized peptide, N-terminal F
Description: as §1, §2, §3, §4, §5

B1: ClpS WT: truncated wildtype E. coli ClpS polypeptide, 84 amino acids, SEQ ID NO: 1, displayed on phage (protein, listed as Escherichia coli)
chain: KPPSMYKVILVNDDYTPMEFVIDVLQKFFSYDVERATQLMLAVHYQGKAICGVFTAEVAETKVAMVNKYARENEHPLLCTLEKA
modifications: phage display
For B1, the “phage ELISA binding signal” value ([1]; N-terminal L, phage 10X, sub Fab) was 1.57, the “phage ELISA binding signal” value ([1]; N-terminal amino acid L, Table 1) was 1.57 and the “phage ELISA binding signal” value ([2]; N-terminal V, phage 10X, sub Fab) was −0.09. For the same molecule, the “phage ELISA binding signal” value ([2]; N-terminal amino acid V, Table 1) was −0.09, the “phage ELISA binding signal” value ([3]; N-terminal T, phage 10X, sub Fab) was 0.01 and the “phage ELISA binding signal” value ([3]; N-terminal amino acid T, Table 1) was 0.01. The “phage ELISA binding signal” value ([4]; N-terminal Q, phage 10X, sub Fab) was −0.18, the “phage ELISA binding signal” value ([4]; N-terminal amino acid Q, Table 1) was −0.18 and the affinities [5] was “single-digit micromolar to nanomolar”. For the same molecule, the “binding of phage-displayed ClpS to immobilized peptides” value (Leu-peptides; listed as ClpS from E. coli) was “binds two of the Leu-peptides specifically, without cross reactivity to any of the negative controls”, the “binding of phage-displayed ClpS to immobilized peptides” value (Leu-peptides; listed as ClpS from Escherichia coli) was “able to bind its cognate ligand (immobilized Leucine)” and the “phage ELISA binding signal” value ([6]; N-terminal E, phage 10X, sub Fab) was −0.26. The “phage ELISA binding signal” value ([6]; N-terminal amino acid E, Table 1) was −0.26, the “phage ELISA binding signal” value ([7]; N-terminal P, phage 10X, sub Fab) was −0.07 and the “phage ELISA binding signal” value ([7]; N-terminal amino acid P, Table 1) was −0.07. The Kd (Leu-peptide) was 4.8 µM, the “binding specificity / preference for N-terminal amino acids” value [8] was “clear preference for Leu, Tyr, Phe and, more weakly, Trp peptides” and the “phage ELISA binding signal” value ([9]; N-terminal W, phage 10X, sub Fab) was 0.77. For the same molecule, the “phage ELISA binding signal” value ([9]; N-terminal amino acid W, Table 1) was 0.77, the “phage ELISA binding signal” value ([10]; N-terminal H, phage 10X, sub Fab) was −0.03 and the “phage ELISA binding signal” value ([10]; N-terminal amino acid H, Table 1) was −0.03. The “phage ELISA binding signal” value ([11]; N-terminal N, phage 10X, sub Fab) was −0.05, the “phage ELISA binding signal” value ([11]; N-terminal amino acid N, Table 1) was −0.05 and the “phage ELISA binding signal” value ([12]; N-terminal M, phage 10X, sub Fab) was −0.11. The “phage ELISA binding signal” value ([12]; N-terminal amino acid M, Table 1) was −0.11, the “phage ELISA binding signal” value ([13]; N-terminal C, phage 10X, sub Fab) was −0.23 and the “phage ELISA binding signal” value ([13]; N-terminal amino acid C, Table 1) was −0.23. For the same molecule, the “phage ELISA binding signal” value ([14]; N-terminal F, phage 10X, sub Fab) was 1.81 and the “phage ELISA binding signal” value ([14]; N-terminal amino acid F, Table 1) was 1.81.
